Measurements taken from US20090155873A1, “BIOFUEL PRODUCTION” (BIO ARCHITECTURE LAB, INC., priority 2007, published 2009).

Assays:
Type in all cases: biochemical
[1] = Assay for DEHU hydrogenase (NADPH dependent DEHU hydrogenation); conditions: cell lysate, absorbance at 340 nm for 30 min, FIG. 7A
Description: (§1) To identify DEHU hydrogenase, a NADPH dependent DEHU hydrogenation assay was performed. 20 μl of prepared cell lysate containing each ADH was added to 160 μl of 20-fold deluted DEHU solution prepared in the above section. 20 μl of 2.5 mg/ml of NADPH solution (20 mM Tris-HCl, pH 8.0) was added to initiate the hydrogenation reaction, as a preliminary study using cell lysate of A. tumefaciens C58 have shown that DEHU hydrogenation requires NADPH as a co-factor. The consumption of NADPH was monitored an absorbance at 340 nm for 30 min using the kinetic mode of ThermoMAX 96 well plate reader (Molecular Devises). E. coli cell lysate containing alcohol dehydrogenase (ADH) 10 lacking a portion of N-terminal domain was used in a control reaction mixture.

[2] = Assay for D-mannuronate hydrogenase (NADPH dependent hydrogenation); conditions: cell lysate, absorbance at 340 nm for 30 min, FIG. 7B
Description: as §1, with “D-mannuronate” for “DEHU”, “D-mannuronate” for “20-fold deluted DEHU”, “reaction.” for “reaction, as a preliminary study using cell lysate of A. tumefaciens C58 have shown that DEHU hydrogenation requires NADPH as a co-factor.”

[3] = In vitro pyruvate formation from alginate or mannuronate; conditions: purified enzyme ~5 ug, over night, pyruvate assay kit, FIG. 6B and 6C
[4] = NADPH Production Assay (oxidation of 4-octanol); conditions: NADP+, 30° C., FIG. 30B
Description: Various secondary alcohol dehydrogenases (2ADHs) were isolated from Pseudomonas putida KT2440, Pseudomonas fluorescens Pf-5, and Klebsiella pneumoniae MGH 78578. All vectors were transformed in BL21(DE3) competent cells and expression of the genes encoding the proteins of interest was induced with IPTG (via the T7 promoter). The cells were lysed, proteins were extracted and then purified on Ni-NTA columns. Final protein concentration in the Ni-NTA eluate was diluted to 0.15 mg/mL prior to assays.
[…] consumption and production assays were performed using a THERMOmax microplate reader in the kinetic mode, monitoring the NADPH absorbance peak at 340 nm until the reaction reached equilibrium. […] These reaction conditions are found in Table 4 below.

B1: ADH1: alcohol dehydrogenase ADH1 Atu1557 isolated from Agrobacterium tumefaciens C58, SEQ ID NO:70 (protein)
chain: MFTTSAYACDDGSSPMKLATIRRRDPGPRDVEIEIEFCGVCHSDIHTARSEWPGSLYPCVPGHEIVGRVGRVGAQVTRFKTGDRVGVGCIVDSCRECASCAEGLEQYCENGMTGTYNSPDKAMGGGAHTLGGYSAHVVVDDRYVLNIPEGLDPAAAAPLLCAGITTYSPLRHWNAGPGKRVGVVGLGGLGHMAVKLANAMGATVVMITTSPGKAEDAKKLGAHEVIISRDAEQMKKATSSLDLIIDAVAADHDIDAYLALLKRDGALVQVGAPEKPLSVMAFSLIPGRKTFAGSMIGGIPETQEMLDFCAEKGIAGEIEMIDIDQINDAYERMIKSDVRYRFVIDMKSLPRQKAA
modifications: Agrobacterium tumefaciens C58
DEHU hydrogenase activity monitored by NADPH consumption [1]: significant DEHU hydrogenase activity

B2: ADH2: alcohol dehydrogenase ADH2 Atu2022 isolated from Agrobacterium tumefaciens C58, SEQ ID NO:72 (protein)
chain: MAIARGYAATDASKPLTPFTFERREPNDDDVVIDIKYAGICHSDIHTVRNEWHNAVYPIVPGHEIAGVVRAVGSKVTRFKVGDHVGVGCFVDSCVGCATRDVDNEQYMPGLVQTYNSVERDGKSATQGGYSDHIVVREDYVLSIPDNLPLDASAPLLCAGITLYSPLQHWNAGPGKKVAIVGMGGLGHMGVKIGSAMGADITVLSQTLSKKEDGLKLGAKEYYATSDASTFEKLAGTFDLILCTVSAEIDWNAYLNLLKVNGTMVLLGVPEHAIPVHAFSVIPARRSLAGSMIGSIKETQEMLDFCGKHDIVSEIETIGIKDVNEAYERVLKSDVRYRFVIDMASLDA
modifications: Agrobacterium tumefaciens C58
DEHU hydrogenase activity monitored by NADPH consumption [1]: significant DEHU hydrogenase activity

B3: ADH3: alcohol dehydrogenase ADH3 Atu0626 isolated from Agrobacterium tumefaciens C58, SEQ ID NO:74 (protein)
chain: MTKTMKAAVVRAFGKPLTIEEVAIPDPGPGEILINYKATGVCHTDLHAATGDWPVKPNPPFIPGHEGAGYVAKIGAGVTGIKEGDRAGTPWLYTACGCCIPCRTGWETLCPSQKNSGYSVNGSFAEYGLADPKFVGRLPDNLDFGPAAPVLCAGVTVYKGLKETEVRPGEWVVISGIGGLGHMAVQYAKAMGMHVVAADIFDDKLALAKKLGADVVVNGRAPDAVEQVQKATGGVHGALVTAVSPKAMEQAYGFLRSKGTMALVGLPPGFISIPVFDTVLKRITVRGSIVGTRQDLEEALTFAGEGKVAAHFSWDKLENINDIFHRMEEGKIDGRIVVDLAA
modifications: Agrobacterium tumefaciens C58
mannuronate hydrogenase activity monitored by NADPH consumption [2]: significant mannuronate hydrogenase activity

B4: ADH4: alcohol dehydrogenase ADH4 Atu5240 isolated from Agrobacterium tumefaciens C58, SEQ ID NO:76 (protein)
chain: MTGANQPWEVQEVPVPKAEPGLVLVKIHASGMCYTDVWATQGAGGDIYPQTPGHEVVGEIIEVGAGVHTRKVGDRVGTTWVQSSCGRCSYCRQNRPLTGQTAMNCDSPRTTGFATQGGHAEYIAISAEGTVLLPDGLDYTDAAPMMCAGYTTWSGLRDAEPKPGDRIAVLGIGGLGHVAVQFSKALGFETIAITHSPDKHKLATDLGADIVVADGKELLEAGGADVLLVTTNDFDTAEKAMAGVRPDGRIVLCALDFSKPFSIPSDGKPFHMMRQRVVGSTHGGQHYLAEILDLAAKGKVKPIVETFALEQATEAYERLSTGKMRFRGVFLPHGA
modifications: Agrobacterium tumefaciens C58
mannuronate hydrogenase activity monitored by NADPH consumption [2]: significant mannuronate hydrogenase activity

B5: ADH9: alcohol dehydrogenase ADH9 Atu4087 isolated from Agrobacterium tumefaciens C58, SEQ ID NO:86 (protein)
chain: MKAIVAHGAKDVRIEDRPEEKPGPGEVRLRLARGGICGSDLHYYNHGGFGAVRLREPMVLGHEVSAVIEELGEGVEGLKIGGLVAVSPSRPCRTCRFCQEGLHNQCLNMRFYGSAMPFPHIQGAFREILVADALQCVPADGLSAGEAAMAEPLAVTLHATRRAGDLLGKRVLVTGCGPIGILSILAARRAGAAEIVATDLSDFTLGKAREAGADRVINSKDEPDALAAYGANKGTFDILYECSGAAVALAGGITALRPRGIIVQLGLGGDMSLPMMAITAKELDLRGSFRFHEEFATGVELMRKGLIDVKPFITQTVDLADAISAFEFASDRSRAMKVQIAFS
modifications: Agrobacterium tumefaciens C58
mannuronate hydrogenase activity monitored by NADPH consumption [2]: significant mannuronate hydrogenase activity

B6: Atu3026 (ADH12): alcohol dehydrogenase ADH12 Atu3026 isolated from Agrobacterium tumefaciens C58, SEQ ID NO:92 (protein)
chain: MQRFTNRTIVVAGAGRDIGRACAIRFAQEGANVVLTYNGAAEGAATAVAEIEKLGRSALAIKADLTNAAEVEAAISAAADKFGEIHGLVHVAGGLIARKTIAEMDEAFWHQVLDVNLTSLFLTAKTALPKMAKGGAIVTFSSQAGRDGGGPGALAYATSKGAVMTFTRGLAKEVGPKIRVNAVCPGMISTTFHDTFTKPEVRERVAGATSLKREGSSEDVAGLVAFLASDDAAYVTGACYDINGGVLFS
modifications: Agrobacterium tumefaciens C58
catalysis of DEHU hydrogenase and mannuronate hydrogenase reactions in pyruvate formation from alginate [3]: capable of catalyzing both DEHU hydrogenase and mannuronate hydrogenase reactions

B7: Atu3027 (ADH11): alcohol dehydrogenase ADH11 Atu3027 isolated from Agrobacterium tumefaciens C58, SEQ ID NO:90 (protein)
chain: MRSELPEGFFGPREWARLNAVADIIPGFPHTDFDTANGAEALAEADILLAAWGTPSLTRERLSRAPRLKMLAYAASSVRMVAPAEFWETSDILVTTAASAMAVPVAEFTYAAIIMCGKDVFRLRDEHRTERGTGVFGSRRGRSLPYLGNHARKVGIVGASRIGRLVMEMLARGTFEIAVYDPFLSAEEAASLGAKKAELDELLAWSDVVSLHAPILPETHHMIGARELALMADHAIFINTARGWLVDHDALLTEAISGRLRILIDTPEPEPLPTDSPFYDLPNVVLTPHIAGALGNELRALSDLAITEIERFVAGLAPLHPVHKQDMERMA
modifications: Agrobacterium tumefaciens C58
catalysis of DEHU hydrogenase and mannuronate hydrogenase reactions in pyruvate formation from alginate [3]: capable of catalyzing both DEHU hydrogenase and mannuronate hydrogenase reactions

B8: 2ADH-5: secondary alcohol dehydrogenase isolated from Pseudomonas putida KT2440, SEQ ID NO:118 (protein)
chain: MSKQLTLEGKVALVQGGSRGIGAAIVRRLAREGAQVAFTYVSSAGPAEELAREITENGGKALALRADSADAAAVQLAVDDTEKALGRLDILVNNAGVLAVAPVTEFDLADFDHMLAVNVRSVFVASQAAARYMGQGGRIINIGSTNAERMPFAGGAPYAMSKSALVGLTRGMARDLGPQGITVNNVQPGPVDTDMNPASGEFAESLIPLMAIGRYGEPEEIASFVAYLAGPEAGYITGASLTVDGGFAA
modifications: Pseudomonas putida KT2440
oxidation of 4-octanol measured by NADPH production [4]: catalyze the oxidation of 4-octanol in the presence of NADP+

B9: 2ADH-8: secondary alcohol dehydrogenase isolated from Pseudomonas putida KT2440, SEQ ID NO:124 (protein)
chain: MSLQGKVALVTGASRGIGQAIALELGRQGATVIGTATSASGAERIAATLKEHGITGTGMELNVTSAESVEAVLAAIGEQFGAPAILVNNAGITRDNLMLRMKDDEWFDVIDTNLNSLYRLSKGVLRGMTKARWGRIISIGSVVGAMGNAGQANYAAAKAGLEGFSRALAREVGSRGITVNSVTPGFIDTDMTRELPEAQREALQTQIPLGRLGQADEIAKVVSFLASDGAAYVTGATVPVNGGMYM
modifications: Pseudomonas putida KT2440
oxidation of 4-octanol measured by NADPH production [4]: catalyze the oxidation of 4-octanol in the presence of NADP+

B10: 2ADH-10: secondary alcohol dehydrogenase isolated from Pseudomonas putida KT2440, SEQ ID NO:128 (protein)
chain: MSKTHLFDLDGKIAFVSGASRGIGEAIAHLLAQQGAHVIVSSRKLDGCQQVADAIIAAGGKATAVACHIGELEQIQQVFAGIREQFGRLDVLVNNAATNPQFCNVLDTDPGAFQKTVDVNIRGYFFMSVEAGKLMRENGGGSIINVASINGVSPGLFQGIYSVTKAAVINMTKVFAKECAPFGIRCNALLPGLTDTKFASALVKNEAILNAALQQIPLKRVADPKEMAGAVLYLASDASSYTTGTTLNVDGGFLS
modifications: Pseudomonas putida KT2440
oxidation of 4-octanol measured by NADPH production [4]: catalyze the oxidation of 4-octanol in the presence of NADP+
